Assay results from patent publication US20070161060A1 (published 2007).
One block for each molecule: values may come before it.

Key:
[1] = molecular target: AP2 adaptor protein complex (endogenous); assay: cell-based or functional assay
[2] = molecular target: endogenous PIPKIγ of HEK293 cells (UniProt O60331); assay: co-IP from HEK293 cells expressing the Myc-tagged tail
β-catenin = molecular target: T1, β-catenin (UniProt P35222 2-781); assay: immunoprecipitation from HEK293 cells
T1 sequence (looked up): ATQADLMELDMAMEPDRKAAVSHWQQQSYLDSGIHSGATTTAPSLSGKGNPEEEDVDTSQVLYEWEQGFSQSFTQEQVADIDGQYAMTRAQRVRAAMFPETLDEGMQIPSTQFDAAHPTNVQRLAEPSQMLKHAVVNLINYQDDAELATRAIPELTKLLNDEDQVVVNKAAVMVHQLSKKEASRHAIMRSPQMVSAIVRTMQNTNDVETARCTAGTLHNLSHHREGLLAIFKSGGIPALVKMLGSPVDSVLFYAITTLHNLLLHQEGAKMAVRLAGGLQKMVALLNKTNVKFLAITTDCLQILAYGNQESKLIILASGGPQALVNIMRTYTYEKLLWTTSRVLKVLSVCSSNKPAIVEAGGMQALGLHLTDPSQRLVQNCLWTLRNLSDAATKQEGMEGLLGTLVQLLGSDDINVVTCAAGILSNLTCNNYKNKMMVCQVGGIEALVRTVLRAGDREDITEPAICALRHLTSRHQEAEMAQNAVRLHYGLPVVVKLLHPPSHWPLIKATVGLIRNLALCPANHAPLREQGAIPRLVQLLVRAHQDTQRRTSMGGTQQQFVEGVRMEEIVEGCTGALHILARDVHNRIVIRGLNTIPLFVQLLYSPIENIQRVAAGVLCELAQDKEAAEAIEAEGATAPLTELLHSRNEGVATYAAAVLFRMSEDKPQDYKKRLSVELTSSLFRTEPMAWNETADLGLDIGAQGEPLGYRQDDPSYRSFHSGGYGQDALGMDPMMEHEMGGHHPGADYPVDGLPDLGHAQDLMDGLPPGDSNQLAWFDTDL

[3] = molecular target: AP2 adaptor protein complex (endogenous)

Sequence of endogenous PIPKIγ of HEK293 cells (O60331 whole entry): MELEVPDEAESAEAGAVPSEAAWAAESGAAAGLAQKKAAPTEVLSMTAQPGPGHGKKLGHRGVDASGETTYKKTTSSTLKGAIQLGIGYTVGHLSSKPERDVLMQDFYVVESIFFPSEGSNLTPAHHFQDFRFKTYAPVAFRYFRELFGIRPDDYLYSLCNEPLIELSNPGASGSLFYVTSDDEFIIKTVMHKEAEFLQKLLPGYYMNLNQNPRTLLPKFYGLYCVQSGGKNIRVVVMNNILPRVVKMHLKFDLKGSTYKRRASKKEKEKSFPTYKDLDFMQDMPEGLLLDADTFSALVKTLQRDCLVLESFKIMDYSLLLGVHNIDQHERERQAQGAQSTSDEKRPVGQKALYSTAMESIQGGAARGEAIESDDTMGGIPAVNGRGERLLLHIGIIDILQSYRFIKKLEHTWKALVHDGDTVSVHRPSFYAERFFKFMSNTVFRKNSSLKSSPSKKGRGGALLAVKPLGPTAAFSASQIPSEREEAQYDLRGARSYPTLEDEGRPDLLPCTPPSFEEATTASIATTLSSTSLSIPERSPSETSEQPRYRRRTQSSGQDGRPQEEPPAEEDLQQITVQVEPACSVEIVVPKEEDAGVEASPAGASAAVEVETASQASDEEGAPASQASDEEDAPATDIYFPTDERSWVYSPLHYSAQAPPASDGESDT

Molecule: c-Myc-tagged dimeric E-cadherin C-terminus (Myc-HR-ECDT) (from UniProt P12830 731-882)
fold affinity against the monomer [2]: 10 fold

B2: HA-tagged PIPKIγ635 (protein)
chain: MELEVPDEAESAEAGAVTAEAAWSAESGAAAGMTQKKAGLAEAPLVTGQPGPGHGKKLGHRGVDASGETTYKKTTSSTLKGAIQLGIGYTVGNLSSKPERDVLMQDFYVVESIFFPSEGSNLTPAHHFQDFRFKTYAPVAFRYFRELFGIRPDDYLYSLCNEPLIELSNPGASGSVFYVTSDDEFIIKTVMHKEAEFLQKLLPGYYMNLNQNPRTLLPKFYGLYCVQSGGKNIRVVVMNNVLPRVVKMHLKFDLKGSTYKRRASKKEKEKSLPTYKDLDFMQDMPEGLLLDSDTFGALVKTLQRDCLVLESFKIMDYSLLLGVHNIDQQERERQAEGAQSKADEKRPVAQKALYSTAMESIQGGAARGEAIETDDTMGGIPAVNGRGERLLLHIGIIDILQSYRFIKKLEHTWKALVHDGDTVSVHRPSFYAERFFKFMSSTVFRKSSSLKSSPSKKGRGALLAVKPLGPTAAFSASQIPSEREDVQYDLRGARSYPTLEDEGRPDLLPCTPPSFEEATTASIATTLSSTSLSIPERSPSDTSEQPRYRRRTQSSGQDGRPQEEPHAEDLQKITVQVEPVCGVGVVPKEEGAGVEVPPCGASAAASVEIDAASQASEPASQASDEEDAPSTDIYF
transferrin endocytosis (MDCK stable line) [3]: had no appreciable effect on transferrin endocytosis

Further lines, results first:

internalized ALEXA Fluor 647 transferrin, mean fluorescence intensity relative to nonexpressing cells (flow cytometry, MDCK) [1]: > 40 % increase
Molecule: HA-tagged wild-type PIPKIγ661 (from UniProt O70161 1-661) (enzyme)

binding result (β-catenin): binds
B1: E-cadherin Val832Met (receptor, UniProt P12830 155-882, looked up)
chain: DWVIPPISCPENEKGPFPKNLVQIKSNKDKEGKVFYSITGQGADTPPVGVFIIERETGWLKVTEPLDRERIATYTLFSHAVSSNGNAVEDPMEILITVTDQNDNKPEFTQEVFKGSVMEGALPGTSVMEVTATDADDDVNTYNAAIAYTILSQDPELPDKNMFTINRNTGVISVVTTGLDRESFPTYTLVVQAADLQGEGLSTTATAVITVTDTNDNPPIFNPTTYKGQVPENEANVVITTLKVTDADAPNTPAWEAVYTILNDDGGQFVVTTNPVNNDGILKTAKGLDFEAKQQYILHVAVTNVVPFEVSLTTSTATVTVDVLDVNEAPIFVPPEKRVEVSEDFGVGQEITSYTAQEPDTFMEQKITYRIWRDTANWLEINPDTGAISTRAELDREDFEHVKNSTYTALIIATDNGSPVATGTGTLLLILSDVNDNAPIPEPRTIFFCERNPKPQVINIIDADLPPNTSPFTAELTHGASANWTIQYNDPTQESIILKPKMALEVGDYKINLKLMDNQNKDQVTTLEVSVCDCEGAAGVCRKAQPVEAGLQIPAILGILGGILALLILILLLLLFLRRRAVVKEPLLPPEDDTRDNVYYYDEEGGGEEDQDFDLSQLHRGLDARPEVTRNDVAPTLMSVPRYLPRPANPDEIGNFIDENLKAADTDPTAPPYDSLLMFDYEGSGSEAASLSSLNSSESDKDQDYDYLNEWGNRFKKLADMYGGGEDD
notes: whole, on cells; Expressed in HEK293 cells and co-immunoprecipitated from lysates; also called Val832Met E-cadherin mutant
